T1: Mouse ASGR-1 (mouse, UniProt P34927 1-284)
T1 construct: Expressed on HEK 293 cells or as membrane prep on beads; cDNA GenBank BC022106.1; also called muASGR-1; mASGR-1
T1 sequence: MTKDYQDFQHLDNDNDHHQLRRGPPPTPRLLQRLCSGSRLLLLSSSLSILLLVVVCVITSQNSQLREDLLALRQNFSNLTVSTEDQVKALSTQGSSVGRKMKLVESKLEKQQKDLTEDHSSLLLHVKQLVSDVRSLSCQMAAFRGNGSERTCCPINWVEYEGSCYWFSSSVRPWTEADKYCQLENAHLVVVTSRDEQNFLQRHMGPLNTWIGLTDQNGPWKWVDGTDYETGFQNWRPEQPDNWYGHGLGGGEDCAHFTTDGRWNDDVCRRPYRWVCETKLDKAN

T2: Human ASGR-2 (human, UniProt P07307 1-311)
T2 construct: Expressed on HEK 293 cells; cDNA GenBank NM_080913.3; also called huASGR-2; hASGR-2
T2 sequence: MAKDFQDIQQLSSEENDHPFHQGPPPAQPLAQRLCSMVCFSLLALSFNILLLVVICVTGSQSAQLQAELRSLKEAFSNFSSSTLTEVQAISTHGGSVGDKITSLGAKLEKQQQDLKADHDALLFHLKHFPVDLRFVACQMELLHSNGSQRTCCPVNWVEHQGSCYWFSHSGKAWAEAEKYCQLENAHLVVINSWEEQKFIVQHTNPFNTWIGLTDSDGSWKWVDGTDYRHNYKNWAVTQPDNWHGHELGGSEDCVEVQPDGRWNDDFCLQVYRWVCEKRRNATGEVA

T3: Soluble ASGR-1 (human, UniProt P07306 62-291, biotinylated)
T3 construct: Soluble recombinant protein; also called recombinant, soluble ASGR-1 biotinylated protein
T3 sequence: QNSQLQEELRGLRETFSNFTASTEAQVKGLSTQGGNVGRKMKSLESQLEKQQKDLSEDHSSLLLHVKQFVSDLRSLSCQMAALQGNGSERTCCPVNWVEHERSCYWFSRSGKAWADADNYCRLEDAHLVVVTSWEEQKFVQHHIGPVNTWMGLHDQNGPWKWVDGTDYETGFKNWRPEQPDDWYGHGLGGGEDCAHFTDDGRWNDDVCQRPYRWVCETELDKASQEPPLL

B1: 7E11 (antibody, V domains shown)
VH: QVQLVESGGGVVQPGRSLRLSCAASGFTFSSFGMHWVRQAPGKGLEWVAIIWHDGSNKYYADSVKGRFTISRDNSNNTLYLQMSSLRAEDTAVYYCARDLSMGGMDVWGQGTTVTVSS
VL: DIQMTQSPSSLSASVGDRVTIACRASQNIISYLNWYQQKPGKAPKFLIYTASSLQSGVPSRFSGSGSGTDFTLTISSLQPEDFAIYYCQQTYSTPLTFGGGTKVEIK
notes: Tested as hybridoma supernatant at normalized concentration
B2: 194C10 (antibody, V domains shown)
VH: QVQLQQWGAGLLKPSETLSLTCAVSGGSFRYYYWSWIRQPPGKGLEWFGEINHSGSTNYNPSLKSRVTISIDTSKNQFSLKLRSVTAADTAVYYCARDYGAFDIWGQGTMVTVSS
VL: EIVLTQSPGTLSLSPGERATLSCRASPSVNSGYLAWYQQKPGQTPRLLIFGASSRATGIPDRFSASGSGADFTLTISRLEPEDFAVYFCQQYESSPWTFGQGTKVEIK
notes: as for B1
B3: 176H4 (antibody, V domains shown)
VH: QVQLVESGGGVVQPGRSLRLSCAASGFTFSSYGMHWVRQAPGKGLEWVAIIWYDGSYKYYADSVKGRFTISRDNSKNTLYLQMSSLRAEDTAVYYCARDAHDFWSGYFAYWGQGALVTVSS
VL: DIVMTQTPLSLSVTPGQPASISCKSSQSLLHGDGKTYLYWYLQKPGQPPQLLIYEVSNRFSGVPDRFSGSGSGTDFTLKISRVEAEDVGIYYCMQSIQIPWTFGQGTRVEIK
notes: as for B1
B4: 202A3 (antibody, V domains shown)
VH: QVQLEQSGAEVKKPGASVKVSCKASGYTFTSYDINWVRQATGQGLEWLGWMNPKRGNTGYAQKFQGRVTMTRNTSISTAHMELSSLRSEDTAVYYCARGRYSREDYYYYYDMDVWGQGTTVTVSS
VL: DIQMSQSPSSLSASVGDRVTITCRASQGIRNDLGWYQQKPGKAPKRLICAASRLQSGVPSRFSGSGSGTEFTLTISSLQPEDFAIYYCLQHHDYPFTFGPGTKVDIK
notes: as for B1
B5: 54E9 (antibody, V domains shown)
VH: QVQLVQSGAEVKKPGASVKVSCKASGYTFNSYGISWVRLAPGQGLEWMGWISAYNGNTKNAQKLQGRVTMTTDTSTSTAYMELRSLRSDDTAVYYCARHDFWSGYYKGMDVWGQGTTVTVSS
VL: not shown
notes: as for B1
B6: 218G4 (antibody, V domains shown)
VH: QVQLVESGGGVVQPGRSLRLSCAASGFTFSSYGLHWVRQAPGKGLEWVAVIWYDGSNKYYADSVKGRFTISRDNSKNTLYLQMNSLRVEDTAVYYCANWYYYYYGMDVWGQGTTVTVSS
VL: QSVLTQPPSVSAAPGQKVTISCSGSSSNIGNNYVSWYQQLPGTAPKLLLYDSNKRPSGIPARFSGSKSGTSATLGITGLQTGDEADYYCGTWDSSLNTVVFGGGTKLTVL
notes: as for B1
B7: 198D2 (antibody, V domains shown)
VH: QVQLVESGGGVVQPGRSLRLSCAASGFTFRSYGMHWVRQAPGKGLEWVAVIIYDGSYKYYADSVKGRFTISRDNSKNTLYLQMNSLRAEDTAVYYCARTYSGGMDVWGQGTTVTVSS
VL: QSVLTQPPSVSAAPGQKVTISCSGSSSNIGSNYVSWYQQLPGTAPKVLIYDNNKRPSGIPDRFSGSKSGTSATLGITGLQTGDEADYYCGTWDSRLNVGVFGGGTKLTVL
notes: as for B1
B8: 193E7 (antibody, V domains shown)
VH: QVQLQQWGAGLLKPSETLSLTCAVYGGSFSGYFWTWIRQPPGKGLEWIGEINHSGSTNYNPSLKSRVTISVDTSKNQFSLKLSSVTAADTAVYYCARDYGADYWGQGTLVAVSA
VL: DIQMTQSPSSLSASVGDRVTITCRASQGIRNDLGWYQQKPGKAPKRLIYSASSLQRGVPSRFSGSGSGTEFTLTISSLQPEDFATYYCLQHKRYPLTFGGGTKVEIK
notes: as for B1
B9: 7G4 (antibody, V domains shown)
VH: QVQLVESGGGVVQPGRSLRLSCAASGFTFNNYVMHWVRQAPGKGLEWVAVIWYDGSNKYYADSVKGRFTISRDNSKNTLYLQMTSLRAEDTAVYYCAREKYSSNWYDYGMDVWGQGTTVTVSS
VL: DIQMTQSPSSLSASVGDRVTITCRASQGIRNDLGWYQQRPGKAPKRLIYAASSLQSGVPSRFSGSGSGTEFTLTISSLQPEDSATYYCLHQYSYPRTFGQGTKVEIK
notes: as for B1
B10: 5E5 (antibody, V domains shown)
VH: QVQLVESGGGVVQPGRSLRLSCAASGFTFSNYVMHWVRQAPGKGLEWVAVIWYDGSNKYYADSVKGRFTISRDNSKNTLYLQMNSLRAEDTAVYYCTREVYSSGWYDYGMDVWGQGTTVTVSS
VL: DIQMTQSPSSLSASVGDRVTITCRASQGIRNDLGWYQQKPGKAPKRLIYAASSLQSGVPSRFSGSGSGTEFTLTISSLQPEDFATYYCLQHYSYPRTFGQGTKVEVK
notes: as for B1
B11: 22G5 (antibody, V domains shown)
VH: EVQLLESGGGLVQPGGSLRLSCAASGFTFSSYAMNWVRQAPGMGLEWVSVISRSGGYTYYADSVKGRFTISRDNSKNTLYLQMNSLRAEDTAVYYCASRLAVAGSEAFDIWGQGTLVTVSS
VL: DIQMTQSPSSLSASVGDRVTITCRASQNISSYLNWYQQKQGKAPKLLIYAASSLQNGVPSRFSGRGSGTDFTLTISSLQPEDFATYYCQQSYRTPLFTFGPGTKVDFK
notes: as for B1
B12: 25A4 (antibody, V domains shown)
VH: QVLLVQSGAEVKRPGASVKVSCKASGYTFTNYDINWVRQATGQGLEWMGWMYPNSGNTGYAQKFQGRVTMTRNTSISTAYMELSSLRSEDTAVYYCASSSGWYYFDYWGQGTLVTVSS
VL: DIVMTQFPDSLAVSLGERATIKCKSSQSVLYSSHNNNYLAWYQQKPGQPPKLLLYWASTRESGVPDRFSGSGSGTEFTLTISSLEAEDVAVYYCQQYYSTPPTFGQGTKVEIK
notes: as for B1

What was measured:
[1] = biological target: T1, Mouse ASGR-1; test: FACS on transfected HEK 293 cells or membrane preps on beads; binding = signal at least 2x irrelevant IgG
Method: (§1) Human ASGR-1-specific, ligand competing antibody samples were tested for binding to ASGR-1 from other species (cynomologus monkey ASGR-1, mouse ASGR-1, rat ASGR-1, dog ASGR-1, and pig ASGR-1) as well as to human ASGR-2 in FACS binding assays at normalized antibody concentrations. For cell-based assays, HEK 293 cells expressing the appropriate antigen of interest were mixed with antibody sample or controls, incubated for 1 hour at 4° C., and then washed twice. Cells with bound antibody were then incubated with Alexa Fluor® 647 IgG Fc fragment-specific detection antibody and 7-AAD viability stain for 15 minutes at 4° C., washed once and resuspended in FACS buffer. Samples were analyzed using a BD Accuri™ Flow Cytometer and an Intellicyt HyperCyt Autosampler. As a negative control, supernatants and controls were also screened against HEK 293 cells transfected with empty parental vector. […] For membrane-prep binding assays, ASGR-1 species specific membrane preps were used to coat LumAvidin® microspheres (beads) and tested for binding to selected hybridoma supernatants or controls. Briefly, ASGR-1 species specific membrane preps were incubated with streptavidin-coated LumAvidin® beads for 45 minutes in the dark at room temperature and washed twice. Beads were resuspeneded in FACS buffer containing Stabilguard®. Antigen-bound beads were then incubated with normalized antibody sample for 1 hour in the dark at room temperature, washed twice, incubated with Alexa Fluor® 488 IgG Fc fragment-specific detection antibody for 15 minutes in the dark at room temperature, washed once and finally resuspended in FACS buffer. Samples were analyzed using an Intellicyt iQue™ Screener Platform. FACS buffer supplemented with 1 mM Calcium Chloride was used in all steps. As a negative control, supernatants and controls were also screened against a non-ASGR-1 antigen membrane prep coated on the LumAvidin® beads.

[2] = biological target: T2, Human ASGR-2; test: FACS on transfected HEK 293 cells; binding = signal at least 2x irrelevant IgG
Method: as §1

[3] = biological target: T3, Soluble ASGR-1; test: limited antigen binding assay; biotinylated soluble ASGR-1 coated at 2.5 ng/mL on LumAvidin beads, FACS
Method: To assess antibody and antigen interaction strength (relative binding affinity), ASGR-1 specific, ligand competing antibody hybridoma supernatants were tested in a limiting antigen binding assay. Titrated amounts of recombinant, soluble ASGR-1 biotinylated protein was incubated with streptavidin-coated LumAvidin Beads® for 45 minutes in the dark at room temperature and washed twice. Beads were resuspeneded in FACS buffer containing Stabilguard® and 0.05% Sodium Azide. Antigen-bound beads were then incubated with normalized hybridoma supernatant sample or controls for 18 hours in the dark at room temperature, washed twice, incubated with Alexa Fluor® 488 IgG fragment-specific detection antibody for 15 minutes in the dark at room temperature, washed once and finally resuspended in FACS buffer. Samples were analyzed using an Intellicyt iQue™ Screener Platform. FACS buffer supplemented with 1 mM Calcium Chloride was used in all steps. […] In this assay method, the antibody binding signal correlates with antibody affinity. Antibody binding data for a representative antigen coating concentration that fell in the linear range of the instrument signal detection is shown in Table 7.2. The degree of antibody binding to the target (ASGR-1) correlates with the measured fluorescent intensity and thus allows a relative comparison of affinities across the panel.

Binder | binding result [1] | binding result [2] | FACS Geomean [3] [FACS Geomean]
B1 | no binding | no binding | 4660
B2 | no binding | no binding | 21900
B3 | no binding | no binding | 29400
B4 | no binding | no binding | 2150
B5 | no binding | no binding | 6490
B6 | no binding | no binding | 15100
B7 | no binding | no binding | 1870
B8 | no binding | no binding | 18300
B9 | no binding | no binding | 6800
B10 | no binding | no binding | 3280
B11 | no binding | no binding | 1080
B12 | no binding | no binding | 18000

Source: US20190248902A1 (published 2019)
